Source: patent publication US20200207859A1 (priority 2017, published 2020)

Key:
[1] = test system: ARD (MM); assay: Cell killing assay (cell proliferation, Cell Titer-Glo); assay type: cell-based, human; details: 72 hrs
Experimental: (§1) Cytotoxicity effects of the free drug linkers and conjugates were measured with a cell proliferation assay. A total of 12500 cells in a volume of 25 μl were seeded in a 384-well flat bottom white polystyrene plate on the day of assay. Free drug-linkers and conjugates were formulated at 2× starting concentration (1000 nM for free drug linkers and 100 nM for ADCs) in RPMI medium and filtered through MultiScreen HTS 96-Well Filter Plates (Millipore). Filter sterilized samples were serial diluted (1:3) under sterile conditions and added into treatment wells. Plates were cultured at 37° C. in a CO2 incubator for 72 hrs. For cell viability measurement, 30 μl of Cell Titer-Glo® reagent (Promega Corp.) was added into each well, and plates processed as per product instructions. Relative luminescence was measured on an ENVISION® plate reader (Perkin-Elmer; Waltham, Mass.). Relative luminescence readings were converted to % viability using untreated cells as controls. Data was fitted with non-linear regression analysis, using log(inhibitor) vs. response, variable slope, 4 parameter fit equation using GraphPad Prism. Data was expressed as % relative cell viability vs. dose of free drug-linker or conjugate in nM.

[2] = test system: ARP-1 (MM); assay: as above; assay type: cell-based, human; details: 72 hrs
Experimental: as §1

[3] = test system: SU-DHL-6 (NHL); assay: as above; assay type: cell-based, human; details: 72 hrs
Experimental: as §1

[4] = test system: K562 (CML); assay: as above; assay type: cell-based; design: key to Cell Killing Activity Span: NK = no killing; NB = no binding; details: 72 hrs
Experimental: as §1

[5] = test system: OPM-2 (MM); assay: as above; assay type: cell-based; design: key to Cell Killing Activity Span: NK = no killing; NB = no binding; details: 72 hrs
Experimental: as §1

[6] = test system: RPMI-8226 (MM); assay: as above; assay type: cell-based; design: key to Cell Killing Activity Span: NK = no killing; NB = no binding; details: 72 hrs
Experimental: as §1

[7] = test system: BDCM (AML); assay: as above; assay type: cell-based; details: 72 hrs
Experimental: as §1

[8] = test system: JVM-13 (CLL); assay: as above; assay type: cell-based; details: 72 hrs
Experimental: as §1

[9] = test system: RPMI-6666 (HL); assay: as above; assay type: cell-based; details: 72 hrs
Experimental: as §1

[10] = test system: SUP-B15 (ALL); assay: as above; assay type: cell-based; details: 72 hrs
Experimental: as §1

[11] = target: CD74 (human), P04233; assay: cell-based or functional assay
Sequence of CD74 (human), P04233 (P04233 whole entry): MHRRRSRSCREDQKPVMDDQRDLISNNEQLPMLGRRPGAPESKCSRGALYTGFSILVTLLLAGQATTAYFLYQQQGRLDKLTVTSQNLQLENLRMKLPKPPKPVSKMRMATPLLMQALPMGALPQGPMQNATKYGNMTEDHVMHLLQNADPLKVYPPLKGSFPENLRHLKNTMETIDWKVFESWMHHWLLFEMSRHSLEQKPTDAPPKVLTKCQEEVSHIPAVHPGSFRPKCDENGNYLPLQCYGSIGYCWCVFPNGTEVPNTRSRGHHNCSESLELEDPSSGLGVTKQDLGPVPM

COc1cc2cc(c1Cl)N(C)C(=O)C[C@H](OC(=O)[C@H](C)N(C)C(=O)CCCC(=O)N(C)CCOCCOCCOCCOCCC(=O)NCCC(=O)N1Cc3ccccc3C#Cc3ccccc31)[C@]1(C)O[C@H]1[C@H](C)[C@@H]1C[C@@](O)(NC(=O)O1)[C@H](OC)/C=C/C=C(/C)C2 [Free Linker-Drug, DBCO-PEG4-maytansine, reference compound]
Cell Killing Activity Span [1]: 40%
Cell Killing Activity Span [2]: 77%
Cell Killing Activity Span [3]: 98%
Cell Killing Activity Span [4]: NK
Cell Killing Activity Span [5]: NK
Cell Killing Activity Span [6]: NK
Cell Killing Activity Span [7]: 76%
Cell Killing Activity Span [8]: 65%
Cell Killing Activity Span [9]: 85%
Cell Killing Activity Span [10]: 65%

B1: Conjugate A (anti-CD74 IgG-DBCO-PEG4-maytansine conjugate) (antibody, V domains shown)
VH: QVQLVESGGGVVQPGRSLRLSCAASGFNFSDYGMHWVRQAPGKGLEWVAVIWYDGSISYYADSVKGRFTISRDNSKNTLYLQMNSLRAEDTAVYYCARGGTVEHGAVYGTDVWGQGTTVTVSS
VL: DIQMTQSPSSVSASVGDRVTITCRASQGIGSWLAWYQQKPGKAPKLLIYAADRLQSGVPSRFSGSGSGTDFTLTISSLQPEDFATYYCQQYHTYPLTFGGGTKVEIK
modifications: here or on the partner: para-azidomethyl-L-phenylalanine (pAMF, residue 30) at heavy chain EU position 404 (constant region, outside SEQ ID NO 236), linked to DBCO-PEG4-maytansine
cell killing EC50, HH T lymphoma cells, 120 h CellTiter-Glo [11]: 0.22 nM
cell killing EC50, HuT-78 T lymphoma cells, 120 h CellTiter-Glo [11]: 0.59 nM
cell killing EC50, My-La T lymphoma cells, 120 h CellTiter-Glo [11]: 0.54 nM
cell killing IC50, ARD (MM) cells [11]: 8.6 nM
cell killing IC50, ARD (MM) cells, 72 h CellTiter-Glo [11]: 8.6 nM
cell killing IC50, ARP-1 (MM) cells [11]: 9 nM
cell killing IC50, ARP-1 (MM) cells, 72 h CellTiter-Glo [11]: 9 nM
cell killing IC50, BDCM (AML) cells [11]: 4.6 nM
cell killing IC50, BDCM (AML) cells, 72 h CellTiter-Glo [11]: 4.6 nM
cell killing IC50, JVM-13 (CLL) cells [11]: 1.5 nM
cell killing IC50, JVM-13 (CLL) cells, 72 h CellTiter-Glo [11]: 1.5 nM
cell killing IC50, RPMI-6666 (HL) cells [11]: 1 nM
cell killing IC50, RPMI-6666 (HL) cells, 72 h CellTiter-Glo [11]: 1 nM
cell killing IC50, SU-DHL-6 (NHL) cells [11]: 0.6 nM
cell killing IC50, SU-DHL-6 (NHL) cells, 72 h CellTiter-Glo [11]: 0.6 nM
cell killing IC50, SUP-B15 (ALL) cells [11]: 3 nM
cell killing IC50, SUP-B15 (ALL) cells, 72 h CellTiter-Glo [11]: 3 nM
cell killing Span, ARD (MM) cells [11]: 40%
cell killing Span, ARD (MM) cells, 72 h CellTiter-Glo [11]: 38%
cell killing Span, ARP-1 (MM) cells [11]: 77%
cell killing Span, ARP-1 (MM) cells, 72 h CellTiter-Glo [11]: 74%
cell killing Span, BDCM (AML) cells [11]: 76%
cell killing Span, BDCM (AML) cells, 72 h CellTiter-Glo [11]: 74%
cell killing Span, HH T lymphoma cells, 120 h CellTiter-Glo [11]: 77%
cell killing Span, HuT-78 T lymphoma cells, 120 h CellTiter-Glo [11]: 72%
cell killing Span, JVM-13 (CLL) cells [11]: 65%
cell killing Span, JVM-13 (CLL) cells, 72 h CellTiter-Glo [11]: 58%
cell killing Span, My-La T lymphoma cells, 120 h CellTiter-Glo [11]: 73%
cell killing Span, RPMI-6666 (HL) cells [11]: 85%
cell killing Span, RPMI-6666 (HL) cells, 72 h CellTiter-Glo [11]: 84%
cell killing Span, SU-DHL-6 (NHL) cells [11]: 98%
cell killing Span, SU-DHL-6 (NHL) cells, 72 h CellTiter-Glo [11]: 98%
cell killing Span, SUP-B15 (ALL) cells [11]: 65%
cell killing Span, SUP-B15 (ALL) cells, 72 h CellTiter-Glo [11]: 64%

B2: Conjugate B (anti-CD74 IgG-PEG4-maytansine conjugate) (antibody, V domains shown)
VH: B1 VH
VL: B1 VL
modifications: here or on the partner: modified amino acid residue 30 (pAMF) according to Example 2, position not stated for this conjugate, linked to a PEG4-maytansine linker-payload
cell killing IC50, ARD (MM) cells [11]: 31 nM
cell killing IC50, ARP-1 (MM) cells [11]: 16 nM
cell killing IC50, BDCM (AML) cells [11]: 15 nM
cell killing IC50, JVM-13 (CLL) cells [11]: 2 nM
cell killing IC50, RPMI-6666 (HL) cells [11]: 1.3 nM
cell killing IC50, RPMI-8226 (MM) cells [11]: 51 nM
cell killing IC50, SU-DHL-6 (NHL) cells [11]: 1.3 nM
cell killing IC50, SUP-B15 (ALL) cells [11]: 5.7 nM
cell killing Span, ARD (MM) cells [11]: 53%
cell killing Span, ARP-1 (MM) cells [11]: 82%
cell killing Span, BDCM (AML) cells [11]: 95%
cell killing Span, JVM-13 (CLL) cells [11]: 69%
cell killing Span, RPMI-6666 (HL) cells [11]: 89%
cell killing Span, RPMI-8226 (MM) cells [11]: 41%
cell killing Span, SU-DHL-6 (NHL) cells [11]: 98%
cell killing Span, SUP-B15 (ALL) cells [11]: 72%

B3: Conjugate E: anti-CD74 IgG containing residue 30 conjugated to a PEG4-MMAF precursor (conjugate)
VH: B1 VH
VL: B1 VL
Cell Killing Activity Span [1]: 20%
IC50 [1]: 18 nM
Cell Killing Activity Span [2]: 71%
IC50 [2]: 6 nM
Cell Killing Activity Span [3]: 98%
IC50 [3]: 0.5 nM
Cell Killing Activity Span [4]: NK
IC50 [4]: > 50 nM
Cell Killing Activity Span [5]: NK
IC50 [5]: > 50 nM
Cell Killing Activity Span [6]: NK
IC50 [6]: > 50 nM
Cell Killing Activity Span [7]: 78%
IC50 [7]: 3.3 nM
Cell Killing Activity Span [8]: 47%
IC50 [8]: 7.8 nM
Cell Killing Activity Span [10]: 58%
IC50 [10]: 2.5 nM

B4: Conjugate F (anti-CD74 IgG-PEG4-MMAE conjugate) (antibody, V domains shown)
VH: B1 VH
VL: B1 VL
modifications: here or on the partner: modified amino acid residue 30 (pAMF) according to Example 2, position not stated for this conjugate, linked to PEG4-MMAE
cell killing IC50, ARD (MM) cells [11]: 16 nM
cell killing IC50, ARP-1 (MM) cells [11]: 4.2 nM
cell killing IC50, BDCM (AML) cells [11]: 1.4 nM
cell killing IC50, JVM-13 (CLL) cells [11]: 5 nM
cell killing IC50, RPMI-6666 (HL) cells [11]: 0.7 nM
cell killing IC50, RPMI-8226 (MM) cells [11]: 20 nM
cell killing IC50, SU-DHL-6 (NHL) cells [11]: 0.3 nM
cell killing IC50, SUP-B15 (ALL) cells [11]: 3.7 nM
cell killing Span, ARD (MM) cells [11]: 73%
cell killing Span, ARP-1 (MM) cells [11]: 93%
cell killing Span, BDCM (AML) cells [11]: 94%
cell killing Span, JVM-13 (CLL) cells [11]: 59%
cell killing Span, RPMI-6666 (HL) cells [11]: 82%
cell killing Span, RPMI-8226 (MM) cells [11]: 31%
cell killing Span, SU-DHL-6 (NHL) cells [11]: 97%
cell killing Span, SUP-B15 (ALL) cells [11]: 65%

B5: Conjugate E (anti-CD74 IgG-PEG4-MMAF conjugate) (antibody, V domains shown)
VH: B1 VH
VL: B1 VL
modifications: here or on the partner: modified amino acid residue 30 (pAMF) according to Example 2, position not stated for this conjugate, linked to PEG4-MMAF
cell killing IC50, ARD (MM) cells [11]: 18 nM
cell killing IC50, ARP-1 (MM) cells [11]: 6 nM
cell killing IC50, BDCM (AML) cells [11]: 3.3 nM
cell killing IC50, JVM-13 (CLL) cells [11]: 7.8 nM
cell killing IC50, RPMI-6666 (HL) cells [11]: 1.5 nM
cell killing IC50, SU-DHL-6 (NHL) cells [11]: 0.5 nM
cell killing IC50, SUP-B15 (ALL) cells [11]: 2.5 nM
cell killing Span, ARD (MM) cells [11]: 20%
cell killing Span, ARP-1 (MM) cells [11]: 71%
cell killing Span, BDCM (AML) cells [11]: 78%
cell killing Span, JVM-13 (CLL) cells [11]: 47%
cell killing Span, RPMI-6666 (HL) cells [11]: 80%
cell killing Span, SU-DHL-6 (NHL) cells [11]: 98%
cell killing Span, SUP-B15 (ALL) cells [11]: 58%

B6: Conjugate C (anti-CD74 IgG-val-cit-PAB-hemiasterlin conjugate) (antibody, V domains shown)
VH: B1 VH
VL: B1 VL
modifications: here or on the partner: modified amino acid residue 30 (pAMF) according to Example 2, position not stated for this conjugate, linked to val-cit-PAB-hemiasterlin
cell killing IC50, JVM-13 (CLL) cells [11]: 0.9 nM
cell killing IC50, RPMI-6666 (HL) cells [11]: 0.9 nM
cell killing IC50, SU-DHL-6 (NHL) cells [11]: 0.3 nM
cell killing Span, ARD (MM) cells [11]: 74%
cell killing Span, ARP-1 (MM) cells [11]: 87%
cell killing Span, BDCM (AML) cells [11]: 89%
cell killing Span, JVM-13 (CLL) cells [11]: 54%
cell killing Span, RPMI-6666 (HL) cells [11]: 84%
cell killing Span, RPMI-8226 (MM) cells [11]: 43%
cell killing Span, SU-DHL-6 (NHL) cells [11]: 97%
cell killing Span, SUP-B15 (ALL) cells [11]: 68%
